# Results published in patent US20250026842A1.
# B1: P2-2 (protein)
# VH: HHHHHHGGGGSEVQLLESGGGLVQPGGSLRLSCAASGFTFAHETMVWVRQAPGKGLEWVSHIPPDGQDPFYADSVKGRFTISRDNSKNTLYLQMNSLRAEDTAVYHCALLPKRGPWFDYWGQGTLVTVSSA
# B2: P2-1 (protein)
# VH: HHHHHHGGGGSEVQLLESGGGLVQPGGSLRLSCAASGFTFAHETMVWVRQAPGKGLEWVSHIPPDGQDPFYADSVKGRFTISRDNSKNTLYLQMNSLRAEDTAVYHCALLPKRGPWFDYWGQGTLVTVSS
# Biological target: pre-anti-drug antibodies (pre-ADAs) in individual serum samples taken from healthy humans
# Test: ELISA, coated sdAb, 40 healthy donor sera (1:5), anti-human lambda chain-HRP, OD415
row,Binder,percent of serum samples with detectable sdAb-reactive pre-ADAs [%]
1,B1,12.5
2,B2,57.5
